B1: Azoarcus group I ribozyme (parent)
chain: GUGCCUUGCGCCGGGAAACCACGCAAGGGAUGGUGUCAAAUUCGGCGAAACCUAAGCGCCCGCCCGGGCGUAUGGCAACGCCGAGCCAAGCUUCGGCGCCUGCGCCGAUGAAGGUGUAGAGACUAGACGGCACCCACCUAAGGCAAACGCUAUGGUGAAGGCAUAGUCCAGGGAGUGGCGAAAGUCACACAAACCGG

This series covers variants of B1. In words: reverse-splicing fitness (ratio to wild type); higher = more active; in vitro selection; Mg2+ level not given. A digest of the protocol: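 An in vitro group I ribozyme library with randomized positions was T7-transcribed and gel-purified. In triplicate, 10 pmol RNA in EPPS pH 7.5 was reacted with 50 pmoles of a 30-nt RNA substrate for 1 h at 37 °C across several added MgCl2 levels (1–48 mM), then stopped with EDTA. Products were reverse transcribed from a substrate-complementary primer, PCR-amplified and sequenced (HiSeq 4000). Fitness is a variant's read proportion after selection over that before, normalised to wild type.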
On to A111U A145U C150A U176G, for which the reverse-splicing fitness turned out to be 0.0853. Regarding A111U A145U C150A U176A, the reverse-splicing fitness was determined as 0.192. The same measure for A120C A145G C150U C169G U176A: 0.014. A120C A145G C150U C169G U176G: the reverse-splicing fitness turned out to be 0.004.

On to A120C A145G C150U C169G U176C, for which the reverse-splicing fitness is 0.0182. Consider A111U A145G U176A, for which the reverse-splicing fitness was found to be 0.701. The value for A111U A145G U176G was 0.267; that for A111U A145G U176C was 0.721; that for A111U A145C C150U U176G was 0.189.

For the variant A111U A145C C150U U176C, the reverse-splicing fitness stood at 0.436. The same measure for A111U A145C C150U U176A: 0.399. Consider A111U C150U C169U U176A, for which the reverse-splicing fitness was found to be 0.0262. Take A111U C150U C169U U176G: the reverse-splicing fitness worked out at 0.00705. Take A111U C150U C169U U176C: the reverse-splicing fitness came to 0.0237. The same measure for A120C A145C C150U C169G: 0.0109; for A120C A145C C150U C169A: 0.0127; for A120C A145C C150U C169U: 0.194. With A120C A145C C150U C169A U176A, the reverse-splicing fitness was found to be 0.0105. The value for A120C A145C C150U C169A U176C was 0.008. In the case of A120C A145C C150U C169A U176G, the reverse-splicing fitness worked out at 0.00465. On to A111U A145U C169U U176G, for which the reverse-splicing fitness turned out to be 0.00639. Turning to A111U A145U C169U U176C, the reverse-splicing fitness came to 0.0326. For A111U A145U C169U U176A, the reverse-splicing fitness was 0.0258. Regarding A111U A145C C150U C169G U176C, the reverse-splicing fitness stood at 0.0135.

With A111U A145C C150U C169G U176G, the reverse-splicing fitness came to 0.00741.

Take A111U A145C C150U C169G U176A: the reverse-splicing fitness came to 0.0212. The value for A111U A145C C150U C169U U176A was 0.0173; that for A111U A145C C150U C169U U176G was 0.00571; that for A111U A145C C150U C169U U176C was 0.0152.

On to A111U A145G C150G C169G, for which the reverse-splicing fitness came out at 0.011.

Take A111U A145G C150G C169A: the reverse-splicing fitness was 0.0104.

For the variant A111U A145G C150G C169U, the reverse-splicing fitness came out at 0.0181. For A111U A145U C150U C169U, the reverse-splicing fitness was determined as 0.0705. As to A111U A145U C150U C169A, the reverse-splicing fitness worked out at 0.0209. Consider A111U A145U C150U C169G, for which the reverse-splicing fitness is 0.0415.

With A111U A145G C150A C169U U176C, the reverse-splicing fitness was 0.0191. With A111U A145G C150A C169U U176A, the reverse-splicing fitness came out at 0.0173. Consider A111U A145G C150A C169U U176G, for which the reverse-splicing fitness was found to be 0.00686. A120C A145C C150G C169U U176A: the reverse-splicing fitness was determined as 0.0183. Consider A120C A145C C150G C169U U176G, for which the reverse-splicing fitness is 0.0043. The same measure for A120C A145C C150G C169U U176C: 0.0503; for A111U A145U C169A U176C: 0.0115. Consider A111U A145U C169A U176A, for which the reverse-splicing fitness worked out at 0.0113. Take A111U A145U C169A U176G: the reverse-splicing fitness amounted to 0.00631. As to A111U A145C C150U C169A U176G, the reverse-splicing fitness came out at 0.00703. A111U A145C C150U C169A U176A: the reverse-splicing fitness is 0.0117.

Take A111U A145C C150U C169A U176C: the reverse-splicing fitness was determined as 0.00769. The value for A120C was 0.9; that for A120C A145C C150U U176A was 0.398. For the variant A120C A145C C150U U176C, the reverse-splicing fitness came to 0.317. The value for A120C A145C C150U U176G was 0.137; that for A120C A145G C150G C169G was 0.00987; that for A120C A145G C150G C169A was 0.0119.

As for A120C A145G C150G C169U, the reverse-splicing fitness was found to be 0.108.

With A111U A145U C169G U176G, the reverse-splicing fitness came to 0.00562.

In the case of A111U A145U C169G U176C, the reverse-splicing fitness was determined as 0.0214. Take A111U A145U C169G U176A: the reverse-splicing fitness worked out at 0.016. On to A111U A145U C150A C169U, for which the reverse-splicing fitness turned out to be 0.018. In the case of A111U A145U C150A C169G, the reverse-splicing fitness came out at 0.0109. For the variant A111U A145U C150A C169A, the reverse-splicing fitness worked out at 0.01. For the variant A120C A145C C150G U176G, the reverse-splicing fitness was determined as 0.0256. On to A120C A145C C150G U176A, for which the reverse-splicing fitness is 0.155. As to A120C A145C C150G U176C, the reverse-splicing fitness was 0.174.

On to A111U A145G C150A U176A, for which the reverse-splicing fitness is 0.238.

For A111U A145G C150A U176C, the reverse-splicing fitness is 0.299. With A111U A145G C150A U176G, the reverse-splicing fitness is 0.0951. For the variant A111U A145G C169G U176G, the reverse-splicing fitness was 0.00535.

A111U A145G C169G U176A: the reverse-splicing fitness is 0.0249. Turning to A111U A145G C169G U176C, the reverse-splicing fitness is 0.0358. Regarding A120C A145C C169A U176G, the reverse-splicing fitness was 0.00331. On to A120C A145C C169A U176A, for which the reverse-splicing fitness was determined as 0.00918. Turning to A120C A145C C169A U176C, the reverse-splicing fitness stood at 0.00838.

Turning to A111U A145G C150G C169A U176G, the reverse-splicing fitness worked out at 0.00707. For A111U A145G C150G C169A U176A, the reverse-splicing fitness stood at 0.0118. With A111U A145G C150G C169A U176C, the reverse-splicing fitness was 0.0121. The value for A111U C150A C169G U176G was 0.00571; that for A111U C150A C169G U176C was 0.0236. The same measure for A111U C150A C169G U176A: 0.0165; for A120C A145G C150U: 0.781; for A120C A145G C150G: 0.234. A120C A145G C150A: the reverse-splicing fitness was 0.32. The value for A111U C169U was 0.103.

For the variant A111U C169G, the reverse-splicing fitness turned out to be 0.0649. The value for A111U C169A was 0.0292.

The values are drawn from the RNAGym collection of RNA variant scans (doi:10.1093/molbev/msab373).
